Molecular target: 2-cysteine (Cys) peroxiredoxin A, recombinant mature wild type, tag-free (Arabidopsis)
Assay: LC/MS of the intact protein (deconvoluted masses); oxidised 2CPA with 0 to 19.2 mM GSH and NEM, 50 mM Tris pH 7.5, 25 °C; C4 column, acetonitrile gradient with 0.1% HCOOH; shows disulfide-linked dimers

2-cysteine (Cys) peroxiredoxin A, recombinant mature wild type, tag-free (enzyme)
stoichiometry N: 2

From publication PMC10648297
